Molecular target: T1, ankyrin-repeat-, SH3-domain- and proline-rich-region-containing protein 2 (ASPP2), FLAG-tagged (UniProt Q8CG79 1-1128)
T1 construct: ASPP2, FLAG-tagged, co-expressed with HA-MAGI-3 in a heterologous expression system; HEK293 is probably the host; also called FLAG-ASPP2; source: heterologous expression system, in lysate
T1 sequence (looked up): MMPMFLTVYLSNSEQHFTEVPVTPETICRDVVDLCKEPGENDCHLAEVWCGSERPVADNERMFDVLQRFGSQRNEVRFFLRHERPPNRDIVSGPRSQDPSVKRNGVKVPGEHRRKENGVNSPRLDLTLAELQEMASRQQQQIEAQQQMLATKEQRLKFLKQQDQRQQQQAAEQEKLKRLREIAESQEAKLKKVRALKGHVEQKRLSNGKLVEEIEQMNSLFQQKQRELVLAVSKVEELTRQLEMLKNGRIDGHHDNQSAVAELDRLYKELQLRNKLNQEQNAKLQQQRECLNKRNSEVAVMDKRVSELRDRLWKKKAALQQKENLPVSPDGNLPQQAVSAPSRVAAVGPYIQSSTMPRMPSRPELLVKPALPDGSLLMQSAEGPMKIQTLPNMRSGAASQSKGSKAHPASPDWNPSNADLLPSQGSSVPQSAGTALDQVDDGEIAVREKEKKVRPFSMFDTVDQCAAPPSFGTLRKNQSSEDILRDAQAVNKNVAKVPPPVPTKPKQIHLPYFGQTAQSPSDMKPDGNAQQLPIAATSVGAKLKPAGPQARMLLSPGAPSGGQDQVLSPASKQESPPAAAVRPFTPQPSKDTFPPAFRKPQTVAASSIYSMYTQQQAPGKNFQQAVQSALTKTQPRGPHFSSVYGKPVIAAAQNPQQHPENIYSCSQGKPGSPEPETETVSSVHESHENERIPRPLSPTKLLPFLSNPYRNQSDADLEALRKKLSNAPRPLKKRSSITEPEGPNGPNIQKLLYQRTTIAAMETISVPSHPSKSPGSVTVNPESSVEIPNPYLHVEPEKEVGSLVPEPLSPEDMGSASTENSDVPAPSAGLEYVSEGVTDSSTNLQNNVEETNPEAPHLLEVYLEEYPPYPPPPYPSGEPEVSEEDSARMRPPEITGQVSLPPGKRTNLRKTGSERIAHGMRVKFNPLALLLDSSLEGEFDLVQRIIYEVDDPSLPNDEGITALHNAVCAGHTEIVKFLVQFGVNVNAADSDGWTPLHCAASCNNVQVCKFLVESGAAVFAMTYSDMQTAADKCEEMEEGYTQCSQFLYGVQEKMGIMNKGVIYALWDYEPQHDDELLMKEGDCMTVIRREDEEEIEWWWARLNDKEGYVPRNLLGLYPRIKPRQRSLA
Test: co-IP; FLAG immunoprecipitation in a heterologous expression system; FLAG-ASPP2 and HA-MAGI-3 co-expressed with GFP-RASSF10; 20 mM Tris-HCl pH 7.5, 150 mM NaCl, 1% Triton X-100; blot quantified, normalised to GFP control
Conditions: partners not purified

fold co-precipitation with GFP-RASSF10 co-expressed, over GFP alone: ~4 fold
B1: MAGI-3 (natural protein, UniProt Q9EQJ9 1-1476, looked up)
chain: MSKTLKKKKHWLSKVQECAVSWAGPPGDLGAEIRGGAERGEFPYLGRLRDEAGGGGGTCCVVSGKAPSPGDVLLEVNGTPVSGLTNRDTLAVIRHFREPIRLKTVKPGKVINKDLRHYLSLQFQKGSIDHKLQQVIRDNLYLRTIPCTTRAPRDGEVPGVDYNFISVEQFKALEESGALLESGTYDGNFYGTPKPPAEPSPFQPDPVDQVLFDNEFDTESQRKRTTSVSKMERMDSSLPEEEEDEDKEAVNGSGSMETREMHSETSDCWMKTVPSYNQTNSSMDFRNYMMRDENLEPLPKNWEMAYTDTGMIYFIDHNTKTTTWLDPRLCKKAKAPEDCEDGELPYGWEKIEDPQYGTYYVDHLNQKTQFENPVEEAKRKKQLGQAEIHSAKTDVERAHFTRDPSQLKGVLVRASLKKSTMGFGFTIIGGDRPDEFLQVKNVLKDGPAAQDGKIAPGDVIVDINGNCVLGHTHADVVQMFQLVPVNQYVNLTLCRGYPLPDDSEDPVVDIVAATPVINGQSLTKGETCMNTQDFKLGAMVLDQNGKSGQILASDRLNGPSESSEQRASLASSGSSQPELVTIPLIKGPKGFGFAIADSPTGQKVKMILDSQWCQGLQKGDIIKEIYHQNVQNLTHLQVVEVLKQFPVGADVPLLILRGGPCSPTKTAKTKTDTKENSGSLETINEPIPQPMPFPPSIIRSGSPKLDPSEVYLKSKTLYEDKPPNTKDLDVFLRKQESGFGFRVLGGDGPDQSIYIGAIIPLGAAEKDGRLRAADELMCIDGIPVKGKSHKQVLDLMTTAARNGHVLLTVRRKIFYGEKQPEDESHQAFSQNGSPRLNRAELPTRSAPQEAYDVTLQRKENEGFGFVILTSKSKPPPGVIPHKIGRVIDGSPADRCGGLKVGDHISAVNGQSIVDLSHDNIVQLIKDAGVTVTLTVVAEEEHHGPPSGTNSARQSPALQHRPMGQAQANHIPGDRIALEGEIGRDVCSSYRHSWSDHKHLAQPDTAVISVVGSRHNQSLGCYPVELERGPRGFGFSLRGGKEYNMGLFILRLAEDGPAIKDGRIHVGDQIVEINGEPTQGITHTRAIELIQAGGNKVLLLLRPGTGLIPDHGDWDTNSPSSSNVIYDEQPPPLPSSHSASTFEESHVPATEDSLTRVQICEKAEELKDTVQEKKSTLNGSQPEMKYQSVHKTMSKKDPPRGSGHGEKSRLKGENGVTRRGRSASPKKSVNRHSEEHLEKIPRPLKSDPKEKSRDRSLSPRKGESKGRLTIKAGSGQDPYRKDRGRSSSPKKQQKIGGNSLSNTEGKLSEAGSRRAAGHPRDSTEQLPDGREKSGVSRKDLKQSQPGKTRTKSPEKKSSKVDETSLPSKKTSSTAGRVVSEKEKGKKPTAGETSRETVEHTQISAKQLKQEAQEKTALGNADDHKGRESEVTDRCRERAGCTPQSSSLVKKAPITPGPWRVPRANKVTGTTGMADKQL
notes: MAGI-3, expressed in a heterologous expression system for FLAG immunoprecipitation; HEK293 is probably the host; also called HA-MAGI-3; MAGI proteins; source: heterologous expression system, in lysate

Source: PMC7954791, “MAGIs regulate aPKC to enable balanced distribution of intercellular tension for epithelial sheet homeostasis” (Communications Biology, 2021)
